Test results published in the supplement of paper PMC10567573.
± gives the standard deviation.

Assay: protein stability index of a GFP-peptide fusion (GPS, HEK-293T) (PSI 1-6); higher = more stable
[1] = treatment: DMSO, c terminus: a fixed tail appended
[2] = treatment: MLN4924 1 uM, 8 h, c terminus: a fixed tail appended
[3] = treatment: DMSO, c terminus: native
[4] = treatment: MLN4924 1 uM, 8 h, c terminus: native
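Also: 24-mer peptide tiles fused after GFP, lentivirally expressed, FACS-sorted into six equal bins by GFP/DsRed ratio, decoded by Illumina sequencing, PSI is the read-weighted mean bin number.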

| Sequence | protein stability index [1] | protein stability index [2] | protein stability index [3] | protein stability index [4] |
| --- | --- | --- | --- | --- |
| AMGHSQDRLTTFQENQARTHVLSK [LRRC45] | 4.7 ± 0.21 | 4.7 ± 0.28 |  |  |
| NSGTDQEQIHLLLSSQCFSNISRP [M1AP] | 2.98 ± 0.21 | 3.18 ± 0.27 |  |  |
| ARIRDEEAQRASFLQNAVLAYVQA [LRRC45] | 2.46 ± 0.2 | 2.49 ± 0.29 |  |  |
| DLMVEATPRRVFANAHTYHINSIS [PPP2R2B] | 2.58 ± 0.23 | 2.49 ± 0.3 |  |  |
| ISLRVYRKVLQAVHRGDGANPFQA [RTN2] | 2.59 ± 0.46 | 2.2 ± 0.32 |  |  |
| NLNAATDDPENKKTSSSSKAGFTA [CDC14A] | 5.17 ± 0.16 | 5.02 ± 0.062 |  |  |
| EPTAAATARRSKRERREEDRAPAE [PWWP2B] | 5.7 ± 0.095 | 5.45 ± 0.14 |  |  |
| AAGVAAAFGAPIGGTLFSLEEGSS [CLCN6] | 3.94 ± 0.09 | 3.97 ± 0.17 |  |  |
| AMREAIQSYPSQDKPLPPPPPGSL [SOAT2] | 4.23 ± 0.12 | 4.04 ± 0.35 |  |  |
| ARAEAEQMAKKAEAFQLYQEAAQL [FLOT1] | 4.49 ± 0.17 | 4.52 ± 0.3 |  |  |
| QLGTAGQGFSYSKSNGRGGSQAGG [MYOZ1] | 4.54 ± 0.2 | 4.93 ± 0.71 |  |  |
| LPPPCAALWCSGHLNGHAMCQTKH [ADAMTS4] | 3.13 ± 0.24 | 3.17 ± 0.3 |  |  |
| AAAQAPENFQEGKDMSESQDEVPD [TAF7L] | 5.62 ± 0.24 | 5.58 ± 0.23 |  |  |
| TGLVGLFVDFFVRLFTQLKFGVVQ [CLCN6] | 2.36 ± 0.36 | 2.54 ± 0.22 |  |  |
| KVKPAEAETAGAIMAFFLCLGLAL [SLC29A1] | 2.99 ± 0.62 | 2.86 ± 0.71 |  |  |
| EPASESVVGALPAEHQFSFMEKRN [TRAF3IP2] | 4.71 ± 0.26 | 4.98 ± 0.27 |  |  |
| SPRDLQFSEIRETSAKVNWMPPPS [TNXB] | 3.73 ± 0.23 | 3.69 ± 0.29 |  |  |
| QTVPKRIPERLSIFCRDTQTVFQK [IQUB] | 2.56 ± 0.43 | 2.24 ± 0.31 |  |  |
| SKSKEEVSSLISEKTNGATPLLMA [FEM1C] | 4.26 ± 0.42 | 4.49 ± 0.24 |  |  |
| LLPNPYQQDFLGLPEELRRLSGLS [C22orf15] | 2.91 ± 0.17 | 2.91 ± 0.34 |  |  |
| ETPEWLDSDSCQKCDQPFFWNFKQ [WDFY2] | 2.94 ± 0.29 | 3.19 ± 0.11 |  |  |
| KVPAPKDVLAHQVPNAKKLRRKEQ [NOP53] | 4.76 ± 0.26 | 4.99 ± 0.17 |  |  |
| WFHAKSAELNKEVSTNTAMIQTSK [KRT13] | 4.09 ± 0.24 | 4.11 ± 0.11 |  |  |

| Sequence | protein stability index [1] | protein stability index [2] | protein stability index [3] | protein stability index [4] |
| --- | --- | --- | --- | --- |
| QWFAMLRAEQDSEVGPQEINKEEL [GMCL1] | 3.95 ± 0.43 | 3.81 ± 0.2 |  |  |
| EQLREALHEALLEYEAGRAGPGGG [ESRRA] | 3.92 ± 0.27 | 4.05 ± 0.39 |  |  |
| LVPDASKQRLMENTEDWRPRPGTG [PDLIM7] | 4.47 ± 0.2 | 4.53 ± 0.32 |  |  |
| VLSLVKKHYRLQFYMFAWTHVTLL [CDS1] | 3.25 ± 0.56 | 2.8 ± 0.56 |  |  |
| ILSLEGGYNLRALAEGVSASLHTL [HDAC6] | 2.15 ± 0.79 | 2.12 ± 0.39 |  |  |
| ISVLQQQGSLSNTYLSKVDPDGKK [FBXO33] | 4.45 ± 0.18 | 4.46 ± 0.2 |  |  |
| ALLKFHTLDSYEDKQKLKRTEIIS [YJU2B] | 2.53 ± 0.3 | 2.53 ± 0.3 |  |  |
| SDDLERTIEERVNILFDFVKKKKE [EIF5] | 3.97 ± 0.19 | 4.2 ± 0.32 |  |  |
| LGAEIRNGMAIIRPPGHHAQHSLM [HDAC6] | 2.92 ± 0.096 | 2.99 ± 0.26 |  |  |
| KTFYKTADISQMLVCTADGDIHLS [TAF7L] | 2.47 ± 0.19 | 2.41 ± 0.34 |  |  |
| SRSRSRSRSNSRSRSYSPRRSRGS [SRSF1] | 5.37 ± 0.24 | 5.6 ± 0.2 |  |  |
| AVCKATTHEVMGPKKKHLDYLIQA [SNAP91] | 3.06 ± 0.29 | 2.96 ± 0.14 |  |  |
| HRQSFGTNSDVLAQQFALMAPLLF [DCAF4] | 2.31 ± 0.28 | 2.36 ± 0.27 |  |  |
| SMALTCTFNRWGTLLAVGCNDGRI [RBBP5] | 2.48 ± 0.33 | 2.35 ± 0.34 |  |  |
| REVRQFQFTAWPDHGVPEHPTPFL [PTPRD] | 2.76 ± 0.24 | 2.97 ± 0.38 |  |  |
| VEPKHCFTSPDYQQQCHEMAERLE [SDE2] | 4.85 ± 0.21 | 4.83 ± 0.18 |  |  |
| LQLETVLEGVVSQIDAVGSKLKML [PKD2L1] | 2.37 ± 0.42 | 2.37 ± 0.11 |  |  |
| REQMEQMKQRIAEENIMKSNIDKK [FAM50A] | 5.08 ± 0.31 | 5.24 ± 0.11 |  |  |
| RGPGASGEQPEPGEAAAGGAAEEA [ACBD3] | 5.54 ± 0.23 | 5.62 ± 0.15 |  |  |
| RRGRSPKGEFKDEEETVTTKHIHI [CLINT1] | 4.78 ± 0.14 | 4.73 ± 0.26 |  |  |
| LQGALDLLAVLCVDGSGRARQAAC [ZSWIM9] | 2.2 ± 0.27 | 2.02 ± 0.18 |  |  |
| SRKVTTNKLLLSIIILLELAILGG [VTI1B] | 2.98 ± 0.7 | 2.84 ± 0.65 |  |  |
| GLLETEPLQGTDEDAVASADFSSM [TPD52L1] | 5.34 ± 0.3 | 5.29 ± 0.37 |  |  |

| Sequence | protein stability index [1] | protein stability index [2] | protein stability index [3] | protein stability index [4] |
| --- | --- | --- | --- | --- |
| PSPGVLCGSARPKPYDPPGEKMVA [ATF4] | 4.37 ± 0.28 | 4.6 ± 0.23 |  |  |
| YMMAKKHLEINPDHPIVETLRQKA [HSP90AB1] | 3.01 ± 0.33 | 3.19 ± 0.39 |  |  |
| KFSYMWTINNFSFCREEMGEVLKS [SPOPL] | 2.34 ± 0.25 | 2.19 ± 0.42 |  |  |
| TLTSVQLLDCFGIPVLMALSWFIL [SLC35F2] | 3.03 ± 0.35 | 2.65 ± 0.58 |  |  |
| PLAEQTPLTLQSQPKEPQLTCDSA [ZSCAN9] | 5.25 ± 0.28 | 5.35 ± 0.36 |  |  |
| ENAQIIYSLAEDTIQGVPLSSYIS [PCDHGA10] | 2.51 ± 0.41 | 2.82 ± 0.43 |  |  |
| TKQNFFSQTPILQALQHVQASCDE [INTS3] | 3.95 ± 0.12 | 4.16 ± 0.23 |  |  |
| APGRPGHPSGHWATCRLCGEQVGR [ZBED3] | 2.331 ± 0.015 | 2.81 ± 0.41 |  |  |
| DQDGDQAPEYRGRTELLKDAIGEG [MOG] | 5.33 ± 0.34 | 5.43 ± 0.21 |  |  |
| VLDVNNQSFREQEEPSNKRVRPLA [NET1] | 3.46 ± 0.2 | 3.99 ± 0.28 |  |  |
| LVYENFYADFGPLNLAMVYRYCCK [CDC14A] | 2.8 ± 0.27 | 2.5 ± 0.55 |  |  |
| CEHICVNSDDSYTCECLEGFRLAE [MATN2] | 4.11 ± 0.69 | 4.71 ± 0.62 |  |  |
| FLQKSSVGITVLNLCALSVDRYRA [EDNRA] | 2.69 ± 0.54 | 2.75 ± 0.54 |  |  |
| DISLGQKEDGEPSWREAKVSWFGS [PWWP2B] | 3.15 ± 0.14 | 3.39 ± 0.14 |  |  |
| PSKVEVTEKTTTVLSESSGPSNTS [C2CD2L] | 5.43 ± 0.095 | 5.44 ± 0.23 |  |  |
| ITTKTADGKCAYRASYSDGKLKAP [MLH1] | 3.78 ± 0.2 | 3.67 ± 0.12 |  |  |
| NGSDNLPSSAGSGDKPLSDPAPF [TPD52L2] |  |  | 5.44 ± 0.21 | 5.51 ± 0.18 |
| SCKEGLSPRGPAPGEEKFENLEGV [ZNF263] | 5.37 ± 0.16 | 5.23 ± 0.36 |  |  |
| ALENLQVEASCSVCLEYLKEPVII [TRIM39] | 2.77 ± 1 | 2.95 ± 0.58 |  |  |
| VIYNYVQRPFIRMSWEKEEGKSRH [BTBD10] | 2.24 ± 0.32 | 2.46 ± 0.17 |  |  |
| FNPEVAKYLKVPQDPLKFYKKIYF [IQUB] | 2.12 ± 0.36 | 2.24 ± 0.043 |  |  |
| TSAVLKAGRQSVSGRKNSTSKDLV [C6orf223] | 4.26 ± 0.074 | 4.38 ± 0.22 |  |  |
| AFQAFTNDLLEILEIDDLDAIVPA [CEP70] | 2.73 ± 0.22 | 2.73 ± 0.5 |  |  |

| Sequence | protein stability index [1] | protein stability index [2] | protein stability index [3] | protein stability index [4] |
| --- | --- | --- | --- | --- |
| AEVAPEERENVAVAKLQESQPGNA [SDE2] | 5.49 ± 0.18 | 5.718 ± 0.056 |  |  |
| MPHSVTLRGPSPWGFRLVGGRDFS [PDLIM4] | 2.61 ± 0.37 | 2.8 ± 0.23 |  |  |
| DREQVSSYNITVTATDGGSPPLST [PCDHGA10] | 4.54 ± 0.24 | 4.74 ± 0.14 |  |  |
| LPIIQSNQVSSNSWGIAGETELAL [DLC1] | 3.52 ± 0.48 | 3.63 ± 0.2 |  |  |
| QQIGDAIRMIVRGTLGSCSSSSEC [PLK2] | 2.1 ± 0.23 | 2.08 ± 0.39 |  |  |
| HFAEEERSKYDYLMILRRVVNEST [TENT5C] | 2.55 ± 0.26 | 2.86 ± 0.37 |  |  |
| RSVEEAPVYSVPQLLSAMGSLCSL [SCNN1D] | 2.44 ± 0.16 | 2.59 ± 0.4 |  |  |
| EQVANKGEPLALPLDAGEYCVPRG [BEX1] | 4.86 ± 0.29 | 4.79 ± 0.27 |  |  |
| HRRELESSGAGSSPPAAPCPPPPG [ZBED3] | 5.12 ± 0.29 | 5.24 ± 0.16 |  |  |
| EKSVTKDAEGLAARDVQKIIGDYF [INTS4] | 2.85 ± 0.4 | 3.51 ± 0.12 |  |  |
| RCLVRCLLRREPAERLTATGILLH [TRIB3] | 2.38 ± 0.43 | 2.44 ± 0.26 |  |  |
| LNLGPALSAALASSQKQHSFTSSD [C8orf76] | 3.31 ± 0.31 | 3.35 ± 0.19 |  |  |
| YDASAIDFSRCDMDGATLCNCALE [ELF3] | 3.99 ± 0.32 | 4.02 ± 0.33 |  |  |
| LEENDETRFILSKVPSEAPSPMPT [SLC6A17] | 4.8 ± 0.15 | 4.84 ± 0.17 |  |  |
| LFVADAYKGLFEVNPWKREVKLLL [APMAP] | 2.56 ± 0.27 | 2.34 ± 0.9 |  |  |
| TLGKVLKVIVVMRSLFIDRTIVKG [MED27] | 3.01 ± 0.66 | 2.74 ± 0.97 |  |  |
| GHLEVVRYLVGEHQADLEVANRHG [FEM1A] | 3.4 ± 0.48 | 3.24 ± 0.41 |  |  |
| QKLETDAMFRLEHGEADRSTLKKA [YJU2B] | 5.22 ± 0.22 | 5.03 ± 0.14 |  |  |
| FAGSMFGSVALGPVCPTVCPPGGI [KRT71] | 2.73 ± 0.61 | 2.36 ± 0.57 |  |  |
| MKSAMRKLWSKKVSLAGKWLYHS [OR4A15] |  |  | 2.47 ± 1.1 | 2.59 ± 0.44 |
